Measured values as given in patent publication US10370642B2, “Hematopoietic progenitor cell populations having affinity for E-selectin / L-selectin” (priority 2000, dated 2019).

What was measured:
CD44 = assay: [35S]-SO4 metabolic labeling of CD44 in KG1a cells; assay type: cell-based, human; conditions: 10 mM sodium chlorate for 24 hr after bromelain
Text: To determine if CD44 on KG1a cells is sulfated, KG1a cell cultures were metabolically labeled with [^35S]-SO4. CD44 immunoprecipitated from these cells was indeed sulfated (FIG. 11 A). To test whether sulfation was critical for L-selectin ligand activity of CD44, KG1a cells were pretreated with 0.1% bromelain, a protease that eliminates all KG1a HCLL activity (Sackstein, R. & Dimitroff, C. J. (2000). Blood. 96, 2765-2774) and also removes CD44 from the cell surface (Hale, L. P. & Haynes, B. F. (1992). J. Immunol 149:3809-3816). Following bromelain digestion of KG1a, re-expression of HCELL requires de novo protein synthesis, and protein synthesized in the presence of chlorate (a metabolic inhibitor of both protein and carbohydrate sulfation) is non-sulfated (Sackstein, R., Fu, L. and Allen, K. L. (1997). Blood. 89:2773-2781). Therefore, KG1a was treated with bromelain and confirmed removal of CD44 by flow cytometry. The KG1a cells were cultured in the absence or presence of 10 mM sodium chlorate for 24 hr and metabolically radiolabeled the cells for the last 8 hr of incubation with [^35S]-SO4 in sulfate-deficient CRCM-30 medium. […] This effect of chlorate was specific for sulfate incorporation and not a general inhibition of CD44 protein synthesis, as [^35S]-methionine/cysteine metabolic radioloabeling of CD44 was identical in chlorate- and non-chlorate-treated cell populations.

E-selectin [1] = target: T1, E-selectin (Homo sapiens, UniProt P16581); assay: CHO-E cell rolling on immobilized immunoprecipitates, parallel-plate flow chamber; assay type: cell-based; conditions: for E-selectin ligand activity (CHO-E cell rolling): immunoprecipitates on plastic, 2.8 dynes/cm^2
T1 construct: stably transfected with full-length cDNA encoding human E-selectin; expressed in transfected cells
T1 sequence (P16581 22-610): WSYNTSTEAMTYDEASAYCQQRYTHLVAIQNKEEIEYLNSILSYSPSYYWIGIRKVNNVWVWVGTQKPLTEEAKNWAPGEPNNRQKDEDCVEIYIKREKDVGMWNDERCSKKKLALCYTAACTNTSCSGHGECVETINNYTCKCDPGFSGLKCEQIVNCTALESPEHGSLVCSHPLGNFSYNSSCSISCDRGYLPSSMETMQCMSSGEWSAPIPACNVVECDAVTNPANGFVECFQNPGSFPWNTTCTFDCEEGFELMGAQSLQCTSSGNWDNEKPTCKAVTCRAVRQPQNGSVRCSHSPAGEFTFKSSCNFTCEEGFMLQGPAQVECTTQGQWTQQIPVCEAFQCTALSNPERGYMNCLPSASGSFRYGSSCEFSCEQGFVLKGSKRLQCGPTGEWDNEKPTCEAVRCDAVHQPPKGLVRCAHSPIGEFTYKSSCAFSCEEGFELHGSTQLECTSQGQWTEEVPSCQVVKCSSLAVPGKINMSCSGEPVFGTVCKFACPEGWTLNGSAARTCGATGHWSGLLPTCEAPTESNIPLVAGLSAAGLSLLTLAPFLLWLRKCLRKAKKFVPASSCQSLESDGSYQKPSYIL
Method: CD44 was immunoprecipitated from untreated cell lysates or from cell lysates treated with N-glycosidase-F (0.8 U/ml) Vibrio cholerae neuraminidase (0.1 U/ml) or a-L-fucosidase (80 mU/ml), and PSGL-1 was immunoprecipitated from untreated cell lysates as previously described (Sackstein and Dimitroff, 2000; Dimitroff et al., 2000).
CD44 or PSGL-1 immunoprecipitates were spotted onto plastic petri dishes, fixed in 3% glutaraldehyde and incubated in 0.2M lysine to block unreactive aldehyde groups, and then non-specific binding was prevented by incubating in 100% FBS for 1 hr at RT. Fixed spots were also treated with Vibrio cholerae neuraminidase (0.1 U/ml assay medium), which was overlaid onto the spots and incubated at 37° C. for 1 hr. […] The flow rate was then increased to achieve a shear stress of 2.8 dynes/cm^2. The frequency of cells rolling per 100× magnification field was determined, and data were expressed as the mean±standard deviation of 8 fields visualized from a minimum of 3 experiments.

E-selectin [2] = target: T1, E-selectin; assay: Blot rolling assay with CHO-E cells; assay type: cell-based; conditions: immunoprecipitated CD44 on Western blot; 3.8 dynes/cm^2
Method: The blot rolling assay was performed as previously described (Dimitroff et al., 2000). Briefly, CHO-E, CHO—P or CHO-Mock transfectants were isolated as described above, washed twice in HBSS and suspended at 10^7/ml in HBSS/10 mM HEPES/2mMCaCl2 (H/H/Ca++)/10% glycerol. Western blots of HPC membrane preparations stained with HECA-452 were rendered transparent by incubating them in H/H/Ca++/10% glycerol. The blots were then placed in the parallel-plate flow chamber, and CHO transfectants (2×10^6/ml) were perfused into the chamber. After allowing the cells to come in contact with the blotting membrane, the flow rate was adjusted to exert a shear stress of 3.8 dynes/cm^2. The viscosity of 10% glycerol adhesion assay medium was considered in the calculation of shear stress values. The number of cells rolling on and between each immunostained banding region was quantified under 100× magnification within each field of view on the video monitor using molecular weight markers (Kaleidoscope Molecular Weight Markers, Bio-Rad Lab.; See Blue® from Novex, Inc.) as guides to help align and visualize the apparent molecular weights of the proteins of interest. A minimum of 3 experiments was performed and results were expressed as the mean±SD of cell rolling/field at 100× magnification.

L-selectin [3] = assay: Blot rolling assay with L-selectin-expressing lymphocytes; assay type: cell-based; conditions: 2.3 dynes/cm^2
Method: L-selectin-expressing lymphocytes were isolated as previously described (Oxley, S. M. & Sackstein, R. (1994). Blood. 84:3299-3306; Sackstein, R., Fu, L. and Allen, K. L. (1997) Blood. 89:2773-2781), washed twice in HBSS and suspended at 2×10^7/ml in HBSS/10 mM HEPES/2mMCaCl2 (H/H/Ca^++)/10% glycerol. Cell lysate material is separated by SDS-PAGE and transferred to PVDF under standard blotting conditions. Western blots of KG1a membrane preparations stained with HECA-452, A3D8 or Hermes-1 were rendered transparent by incubating them in H/H/Ca^++/10% glycerol. To study L-selectin-mediated adhesive interactions, the blots were placed in the parallel plate flow chamber and lymphocytes were perfused into the chamber at a shear force of 2.3 dynes/cm^2 and cellular adhesive interactions are observed by video microscopy and analyzed in real time.
The number of lymphocytes rolling on and between each immunostained banding region was quantified from five independent fields under 200× magnification on the video monitor using molecular weight markers as guides to help align and visualize the proteins of interest. A minimum of 3 experiments were performed, and results were expressed as the mean of cell rolling/field.

L-selectin [4] = target: T2, L-selectin (Rattus norvegicus, UniProt P30836); assay: Stamper-Woodruff assay, lymphocyte adherence to immunoprecipitated CD44 and PSGL-1; assay type: cell-based; conditions: 0.75 μg/spot (PSGL-1 1 μg/spot); 80 rpm, 4° C.; 100× mag.
T2 construct: L-selectin naturally expressed on leukocytes; endogenous in cells; host or cells: lymphocytes (rat thoracic duct lymphocytes; human PBMC also prepared)
T2 sequence (P30836 39-372): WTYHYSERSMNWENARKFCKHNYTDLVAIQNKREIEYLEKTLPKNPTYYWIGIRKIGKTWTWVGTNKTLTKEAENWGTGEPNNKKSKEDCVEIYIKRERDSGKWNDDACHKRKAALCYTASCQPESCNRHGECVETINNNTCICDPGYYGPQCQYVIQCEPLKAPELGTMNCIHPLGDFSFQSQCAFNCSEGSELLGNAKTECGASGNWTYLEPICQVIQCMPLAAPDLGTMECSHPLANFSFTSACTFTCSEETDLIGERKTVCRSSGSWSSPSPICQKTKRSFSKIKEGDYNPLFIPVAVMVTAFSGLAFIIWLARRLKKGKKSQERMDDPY
Method: These protein spots were then fixed in 3% glutaraldehyde, unreactive aldehyde groups were blocked in 0.2M lysine and slides were kept in RPMI-1640 without NaBicarbonate/2% FBS until ready for testing. Lymphocytes (10^7/ml RPMI-1640 without NaBicarbonate/5% FBS) were overlayed onto these fixed immunoprecipitates and incubated on an orbital shaker at 80 rpm for 30 min. at 4° C. The number of adherent lymphocytes was quantified by light microscopy using an ocular grid under 100× magnification (a minimum of 5 fields/slide, 2 slides/experiment, and 3 separate experiments). Data were presented as the mean number of bound lymphocytes±standard deviation. KG1a CD34 and L-selectin control immunoprecipitates were also tested in this manner. To verify the dependence for sialic acid, glutaraldehyde-fixed spots were treated with Vibrio cholerae neuraminidase (0.1 U/ml RPMI-1640 without NaBicarbonate/2% FBS for lhr at 37° C.).
Immunoaffinity purified material (0.75-3 μg/spot) was spotted onto glass slides for analyses in the Stamper-Woodruff assay (See below for assay description). For autoradiographic analysis of immunoprecipitated [^35S]-methionine-radiolabeled CD44 and PSGL-1, immunoprecipitates were spotted onto glass slides, allowed to dry and exposed Kodak BioMax-MR film for 12 h at −80° C. Densitometric analysis (optical density) of the autoradiograms was performed with a Hewlett-Packard Scanj et 5200C scanner and NIH Image processing and analysis program.

P-selectin = target: T3, P-selectin (Homo sapiens, UniProt P16109); assay: CHO-P cell rolling on immobilized immunoprecipitates, parallel-plate flow chamber; assay type: cell-based; conditions: 2.8 dynes/cm^2
T3 construct: CHO-P (CHO stably transfected with human cDNA encoding full length P-selectin); expressed in transfected cells
T3 sequence (P16109 42-830): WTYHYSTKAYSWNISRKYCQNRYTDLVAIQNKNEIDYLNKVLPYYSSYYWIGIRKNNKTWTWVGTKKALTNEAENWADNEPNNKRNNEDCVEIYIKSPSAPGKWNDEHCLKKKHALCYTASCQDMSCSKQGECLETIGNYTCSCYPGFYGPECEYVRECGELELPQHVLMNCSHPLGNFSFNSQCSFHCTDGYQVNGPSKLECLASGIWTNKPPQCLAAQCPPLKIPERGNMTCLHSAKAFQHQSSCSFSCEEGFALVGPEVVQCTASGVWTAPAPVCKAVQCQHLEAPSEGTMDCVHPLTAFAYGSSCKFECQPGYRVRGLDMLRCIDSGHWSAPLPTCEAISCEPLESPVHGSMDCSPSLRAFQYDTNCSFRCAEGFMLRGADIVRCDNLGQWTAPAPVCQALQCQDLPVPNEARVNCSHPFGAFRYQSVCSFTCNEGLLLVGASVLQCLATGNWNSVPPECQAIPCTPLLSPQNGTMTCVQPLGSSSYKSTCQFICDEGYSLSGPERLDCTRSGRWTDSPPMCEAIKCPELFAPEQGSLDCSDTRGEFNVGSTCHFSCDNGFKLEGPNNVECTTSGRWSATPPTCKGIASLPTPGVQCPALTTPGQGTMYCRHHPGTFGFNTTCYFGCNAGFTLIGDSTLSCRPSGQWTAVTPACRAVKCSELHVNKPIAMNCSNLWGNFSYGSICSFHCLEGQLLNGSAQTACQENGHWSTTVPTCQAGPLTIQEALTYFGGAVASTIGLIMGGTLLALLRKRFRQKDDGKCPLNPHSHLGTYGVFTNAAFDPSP
Method: CD44 or PSGL-1 immunoprecipitates were spotted onto plastic petri dishes, fixed in 3% glutaraldehyde and incubated in 0.2M lysine to block unreactive aldehyde groups, and then non-specific binding was prevented by incubating in 100% FBS for 1 hr at RT. Fixed spots were also treated with Vibrio cholerae neuraminidase (0.1 U/ml assay medium), which was overlaid onto the spots and incubated at 37° C. for 1 hr. The protein dishes were placed in the parallel-plate flow chamber and CHO-E, CHO-P (CHO stably transfected with human cDNA encoding full length P-selectin), CHO-P cells treated with function blocking anti-P-selectin moAb (clone AK-4; Pharmingen) (10 μg/ml), CHO-E cells treated with function blocking anti-E-selectin Abs (10 μg/ml) (clone 68-5H1 1) or Mock transfectants were perfused into the chamber (2×10^6/ml H/H/Ca++) at a flow rate of 0.2 ml/min until the cells were in contact with the substrate. The flow rate was then increased to achieve a shear stress of 2.8 dynes/cm^2. The frequency of cells rolling per 100× magnification field was determined, and data were expressed as the mean±standard deviation of 8 fields visualized from a minimum of 3 experiments.

## [O-][Cl+2]([O-])O [chlorate, sodium chlorate]
CD44
  incorporation of [35S]-SO4 into immunoprecipitable CD44 (Hermes-1): completely inhibited

## KG1a N-glycosidase-F CD44: CD44 immunoprecipitated from N-glycosidase-F-treated KG1a membrane protein
E-selectin [1]
  E-selectin ligand activity (CHO-E cell rolling): abrogated CHO-E cell rolling
E-selectin [2]
  E-selectin ligand activity (CHO-E cell rolling) in blot rolling assay: completely abrogated CHO-E cell rolling
L-selectin [3]
  L-selectin ligand activity (lymphocyte tethering and rolling) in blot rolling assay: abolished all L-selectin-mediated lymphocyte tethering and rolling
L-selectin [4]
  Mean Number of Bound Lymphocytes: 30.7

B1: KG1a PSGL-1: PSGL-1 immunoaffinity purified (PL-2) from KG1a cells (protein)
chain: QATEYEYLDYDFLPETEPPEMLRNSTDTTPLTGPGTPESTTVEPAARRSTGLDAGGAVTELTTELANMGNLSTDSAAMEIQTTQPAATEAQTTQPVPTEAQTTPLAATEAQTTRLTATEAQTTPLAATEAQTTPPAATEAQTTQPTGLEAQTTAPAAMEAQTTAPAAMEAQTTPPAAMEAQTTQTTAMEAQTTAPEATEAQTTQPTATEAQTTPLAAMEALSTEPSATEALSMEPTTKRGLFIPFSVSSVTHKGIPMAASNLSVNYPVGAPDHISVKQCLLAILILALVATIFFVCTVVLAVRLSRKGHMYPVRNYSPTEMVCISSLLPDGGEGPSATANGGLSKAKSPGLTPEPREDREGDDLTLHSFLP
E-selectin [1]
  E-selectin ligand activity (CHO-E cell rolling): significantly lower
E-selectin [1]; lower shear stress of 0.6 dynes/cm^2
  CHO-E cell rolling: equivalent to that of CD44
P-selectin
  P-selectin ligand activity (CHO-P cell rolling): rolled on KG1a PSGL-1
L-selectin [4]
  Mean Number of Bound Lymphocytes: 44.8
